Test results reported in patent US9200040B2, “Specific binding agents of human angiopoietin-2” (Amgen Inc., priority 2001, dated 2015).
Entries after “also recorded” stand apart in the source; their conditions may differ. Where two headings read alike, the source gives them in different places. Primed or numbered codes have the meaning given here. Where no end group is shown, it is not given here. [ ]: non-standard residue; d: D form. Fc(5) = non-antigen-binding fragment of an antibody (vehicle) fused to the peptide

Assays:
[1] = molecular target: T1, hAng-1 (Homo sapiens, UniProt Q15389); assay: Neutralization ELISA (Example 2); type: binding; settings: Table 5; about 1 nM Tie-2-Fc
T1 sequence (Q15389 16-498): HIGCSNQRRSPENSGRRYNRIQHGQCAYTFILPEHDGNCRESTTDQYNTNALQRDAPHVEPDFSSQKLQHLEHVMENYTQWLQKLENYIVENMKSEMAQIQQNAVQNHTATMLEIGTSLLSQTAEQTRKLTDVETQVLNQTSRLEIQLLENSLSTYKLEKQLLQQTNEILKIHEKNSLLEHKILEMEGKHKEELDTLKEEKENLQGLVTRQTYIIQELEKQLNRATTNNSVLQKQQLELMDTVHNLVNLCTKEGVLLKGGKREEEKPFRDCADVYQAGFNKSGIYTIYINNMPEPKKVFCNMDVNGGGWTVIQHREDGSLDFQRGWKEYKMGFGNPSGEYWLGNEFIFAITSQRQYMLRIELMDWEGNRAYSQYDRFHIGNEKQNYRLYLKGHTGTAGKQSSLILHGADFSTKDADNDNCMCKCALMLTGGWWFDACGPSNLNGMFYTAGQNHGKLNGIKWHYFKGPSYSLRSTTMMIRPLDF

[2] = molecular target: T2, hAng-2 (Homo sapiens, UniProt O15123); assay: Affinity BIAcore (Example 2); type: binding; settings: Table 6
T2 construct: conditioned media of human 293T cells transfected with full length human Ang-2 DNA; made in house; host or cells: conditioned media
T2 sequence (O15123 19-496): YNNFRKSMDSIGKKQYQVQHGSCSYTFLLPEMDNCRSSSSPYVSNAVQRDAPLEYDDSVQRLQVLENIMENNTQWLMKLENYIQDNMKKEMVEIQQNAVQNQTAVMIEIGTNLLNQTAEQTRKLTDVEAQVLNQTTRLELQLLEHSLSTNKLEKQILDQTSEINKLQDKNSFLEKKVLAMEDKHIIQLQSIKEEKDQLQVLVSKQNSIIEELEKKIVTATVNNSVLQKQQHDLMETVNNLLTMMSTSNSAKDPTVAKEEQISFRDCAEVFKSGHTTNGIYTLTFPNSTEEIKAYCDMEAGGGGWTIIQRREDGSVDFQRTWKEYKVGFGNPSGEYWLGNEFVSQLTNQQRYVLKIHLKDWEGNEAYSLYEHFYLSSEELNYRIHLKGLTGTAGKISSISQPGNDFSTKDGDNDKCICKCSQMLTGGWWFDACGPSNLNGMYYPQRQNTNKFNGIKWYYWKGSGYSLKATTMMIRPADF
Experimental: (§1) Binding assays were carried out by first capturing about 100 Ru of each candidate anti-Ang-2 peptibody to the immobilized Protein G, after which various concentrations (0-100 nM) of huAng-2 or mAng-2 were injected over the bound antibody surface at a flow rate of 50 μl/min for 3 minutes. Peptibody binding kinetic parameters including ka (association rate constant), kd (dissociation rate constant) and KD (dissociation equilibrium constant) were determined using the BIA evaluation 3.1 computer program (Biacore, Inc.). Lower dissociation equilibrium constants indicated greater affinity of the peptibody for Ang-2.

[3] = molecular target: T1, hAng-1; assay: Affinity ELISA; type: binding; settings: Table 5
[4] = molecular target: T3, mAng-2 (Mus musculus, UniProt O35608); assay: Affinity BIAcore (Example 2); type: binding, murine; settings: Table 6
T3 construct: made in house
T3 sequence (O35608 19-496): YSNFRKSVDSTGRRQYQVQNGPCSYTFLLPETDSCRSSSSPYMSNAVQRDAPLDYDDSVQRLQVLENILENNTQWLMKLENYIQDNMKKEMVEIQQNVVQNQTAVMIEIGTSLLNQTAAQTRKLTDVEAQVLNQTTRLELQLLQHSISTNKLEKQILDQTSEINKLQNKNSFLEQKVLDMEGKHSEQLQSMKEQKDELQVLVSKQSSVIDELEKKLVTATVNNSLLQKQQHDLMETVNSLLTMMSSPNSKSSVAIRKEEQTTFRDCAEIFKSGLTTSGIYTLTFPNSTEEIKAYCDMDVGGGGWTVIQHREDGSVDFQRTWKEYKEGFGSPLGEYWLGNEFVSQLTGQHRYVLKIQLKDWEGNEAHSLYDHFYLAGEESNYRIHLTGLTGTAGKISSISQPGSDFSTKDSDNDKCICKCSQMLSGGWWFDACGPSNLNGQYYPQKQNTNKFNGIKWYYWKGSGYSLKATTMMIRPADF
Experimental: as §1

[5] = tested on: A431 tumor; settings: p<0.0001
Experimental: The doses of peptibody used were 1000, 200, 40 and 8 ug/mouse/day. A total of 20 doses was given to all animals. Tumor volumes and body weights were recorded three times/week. At the end of the study, animals were sacrificed, and their sera were collected for measuring peptibody levels by ELISA. Tumors and a panel of normal tissues were collected from all groups.
Female nude mice were injected subcutaneously with 1×10^7 A431 cells on study day 0.

[6] = tested on: VEGF-induced angiogenesis; assay: Corneal angiogenesis model; type: in vivo
Experimental: Ang-2 peptibody CON4(C) was evaluated in the corneal model of angiogenesis in rats. Angiogenesis was induced by implanting a VEGF- (or BSA control) soaked nylon disc into the corneal stroma (n=8/group). Peptibody TN8CON4-C was administered by sub-cutaneous injection at 1.0 or 0.1 mg/rat/day for seven days. Two other groups of animals were treated with the same dose of negative control peptibody 4883. All groups were pre-treated with a single loading dose of either 3.0 or 0.3 mg that was three times the maintenance dose of 1.0 or 0.1 mg (see figure). After seven days of treatment, two vascular endpoints were determined from each digital image of the rat cornea: the number of vessels intersecting the mid-point between the disc and the limbus, and the blood vessel area.

[7] = molecular target: T4, huAng2 (Homo sapiens, UniProt O15123); assay: BIAcore binding to huAng2 (Example 9); settings: Table 8
T4 construct: purchased R&D Systems BNO12103A
T4 sequence (O15123 68-496 limits assumed): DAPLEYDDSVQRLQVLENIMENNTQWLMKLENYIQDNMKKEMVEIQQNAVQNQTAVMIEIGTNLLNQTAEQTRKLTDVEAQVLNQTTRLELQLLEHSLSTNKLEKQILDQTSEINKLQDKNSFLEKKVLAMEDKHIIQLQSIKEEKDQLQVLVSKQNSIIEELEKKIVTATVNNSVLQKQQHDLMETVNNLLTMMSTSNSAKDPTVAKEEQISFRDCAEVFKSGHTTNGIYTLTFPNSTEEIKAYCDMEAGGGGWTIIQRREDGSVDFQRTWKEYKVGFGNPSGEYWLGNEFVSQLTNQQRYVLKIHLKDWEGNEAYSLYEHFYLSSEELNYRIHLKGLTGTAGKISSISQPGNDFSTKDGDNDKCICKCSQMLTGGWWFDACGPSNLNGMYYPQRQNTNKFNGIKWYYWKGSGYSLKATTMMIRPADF
Experimental: Six samples of anti-Ang2 peptibodies were tested for their binding activity to huAng2 (R&D Systems, BNO12103A) on BIAcore. Protein G was immobilized to a CM5 chip according to the standard amine-coupling protocol (BIAcore Inc.), and the peptibodies were then injected over a protein G surface for capturing (RL˜100 Ru). To test binding between hAng2 and the captured peptibody, 0.3 nM to 40 nM of huAng2 was injected over the captured peptibody surfaces, and binding sensorgrams were analyzed using BIAevaluation 3.0 (BIAcore Inc.).

[8] = tested on: Colo-205 tumor
Experimental: Female nude mice were injected subcutaneously with 2×10^6 Colo-205 cells plus Matrigel (2:1) on study day 0. At day 3, the Ang-2 peptibodies L1-7-N, L1-21-N, Con4-C, and 2×Con4-C were administered subcutaneously at the dose of […], twice a week.
Female nude mice were injected subcutaneously with 2×10^6 Colo-205 cells plus Matrigel (2:1) on study day 0.
Female nude mice were injected subcutaneously with 2×10^6 Colo-205 cells plus Matrigel (2:1) on study day 0. At day 3, Ang-2 peptibody 2×Con4-C or control peptibody were administered subcutaneously at the dose of 350 μg/day. Tumors from groups treated with control peptibody (as described in Table 5) were harvested either at Day 14 (size-matched control) or Day 18 (time-matched control). Tumors from 2×Con4(C) treated group were then harvested at Day 18. Tumor volumes were recorded at regular intervals, as shown.
Female nude mice were injected subcutaneously with 2×10^6 Colo-205 cells plus Matrigel (2:1) on study day 0. Treatment with 350 μg/mouse, s.c. twice a week, of the Ang-2 peptibody 2×Con4-C, or equivalent control peptibody started either at study day 3, 10 or 15. […] The results are set forth in FIG. 8 (body weights not shown).
Female nude mice were injected subcutaneously with 2×10^6 Colo-205 cells plus Matrigel (2:1) on study day 0. At study day 14, treatments were started with a) 350 μg/mouse, s.c. twice a week, of the Ang-2 peptibody 2×Con4-C, b) 20 mg/kg qwx3 i.p. of taxotere, or c) a combination of both.
Female nude mice were injected subcutaneously with 2×10^6 Colo-205 cells plus Matrigel (2:1) on study day 0. At study day 14 started treatments with a) 350 μg/mouse, s.c. twice a week, of the Ang-2 peptibody 2×Con4-C, b) 50 mg/kg qdx5 i.p. of 5-FU, or c) a combination of both.

Molecule: MGAQQEECEWDPWTCEHMLEGGGGG-Fc (MGAQQEECEWDPWTCEHMLEGGGGG-{Fc(5)}; not fully specified (bridges); printed as MGAQQEECEWDPWTCEHMLEGGGGG-Fc; cysteine pairing not given here) [Con4 (N)]
- hAng-1 IC 50 [1]: No In-
- hAng-2 ka [2]: 330000 M⁻¹ s⁻¹
- hAng-2 kd [2]: 0.00022 s⁻¹
- hAng-1 EC 50 [3]: No
- mAng-2 ka [4]: 730000 M⁻¹ s⁻¹
- mAng-2 kd [4]: 0.00044 s⁻¹

Molecule: M-Fc-GGGGGAQQEECEWDPWTCEHMLE (M[Fc]GGGGGAQQEECEWDPWTCEHMLE; cysteine pairing not given here) [Con4 (C)]
- tumor growth vs. vehicle control ([5]; s.c. once per day, 1000, 200, 40 and 8 ug/mouse/day, 20 doses): inhibited tumor growth
- overt toxicity based on body weights ([6]; 1.0 or 0.1 mg/rat/day s.c. for seven days): no evidence of overt toxicity
- VEGF-induced angiogenesis (number of vessels, blood vessel area) ([6]; s.c. 1.0 or 0.1 mg/rat/day for seven days after loading dose 3.0 or 0.3 mg, p<0.04): significantly inhibited VEGF-induced angiogenesis in a dose-dependent manner
- ka [7]: 530000 M⁻¹ s⁻¹
- kd [7]: 0.0002 s⁻¹

B1: M-Fc-GGGGGAQQEECEWDPWTCEHMGSGSATGGSGSTASSGSGSATHQEECEWDPWTCEHMLE (protein)
chain: M[Fc]GGGGGAQQEECEWDPWTCEHMGSGSATGGSGSTASSGSGSATHQEECEWDPWTCEHMLE
- tumor growth vs. vehicle control and control peptibody ([5]; 200 μg/mouse/day s.c. from day 3): Significant differences in tumor growth
- body weights ([8]; Example 15): no significant effect on body weights
- tumor growth vs. vehicle control and control peptibody ([8]; Example 15: s.c. 14, 2.8 and 0.56 μg/mouse twice a week, p=0.003 intermediate dose, p<0.0001 high dose): Significant differences in tumor growth were observed between the two higher doses
- body weight ([8]; Example 16): no significant effect on body weight
- tumor growth vs. time-matched control group ([8]; Example 16: s.c. 350 μg/day from day 3, harvested Day 18, p=0.0154): Significant differences in tumor growth
- body weights ([8]; Example 17): no significant effect on body weights
- tumor growth vs. vehicle control ([8]; Example 17: 350 μg/mouse s.c. twice a week started at study day 3, 10 or 15, p=0.089 day 15 group, p<0.0001 day 3 and 10 groups, listed as 2×Con4-C): capable of inhibiting Colo205 tumor growth irrespective of when dosing begins; also recorded: Significant differences in tumor growth
- body weights ([8]; Example 19a): no significant effect on body weights
- tumor growth vs. vehicle control ([8]; Example 19a, from study day 14: 2×Con4-C 350 μg/mouse s.c. twice a week, taxotere 20 mg/kg qwx3 i.p., or both, p<0.0001): Significant differences in tumor growth
- tumor growth vs. vehicle control ([8]; Example 19b, from study day 14: 2×Con4-C 350 μg/mouse s.c. twice a week, 5-FU 50 mg/kg qdx5 i.p., or both, p<0.0001): Significant differences in tumor growth
- ka [7]: 480000 M⁻¹ s⁻¹
- kd [7]: 0.00016 s⁻¹
